Measured values from the MegaScale stability set (Tsuboyama et al. 2023).

B1: EEHEE_rd3_0130 (parent)
chain: TKIIVNGKTFTAPTEEEAQKIAEKLAKKAGLTVHKKNGTFELK

Variants of: B1
Assay: folding stability dG (cDNA display proteolysis); higher = more stable
Settings: PBS, room temperature

Row | Variant | folding stability dG
1 | Q19K | 0.789 kcal/mol
2 | T1W | 2.99 kcal/mol
3 | K2C | 1.16 kcal/mol
4 | A29G | 0.616 kcal/mol
5 | A29V | 0.495 kcal/mol
6 | T32D | -0.061 kcal/mol
7 | E41F | 1.45 kcal/mol
8 | G30T | 0.204 kcal/mol
9 | I3D | -0.633 kcal/mol
10 | K24R | 1.08 kcal/mol
11 | K2Q | 0.574 kcal/mol
12 | K28W | 1.53 kcal/mol
13 | K20D | 0.538 kcal/mol
14 | T9P | -0.619 kcal/mol
15 | N37V | -0.477 kcal/mol
16 | A12V | 1.34 kcal/mol
17 | V33H | -0.447 kcal/mol
18 | F10L | 0.392 kcal/mol
19 | G7Q | 0.025 kcal/mol
20 | K20H | 0.597 kcal/mol
21 | E17W | 0.923 kcal/mol
22 | T32W | -0.409 kcal/mol
23 | E23Y | 1.13 kcal/mol
24 | G30N | 0.349 kcal/mol

Row | Variant | folding stability dG
25 | K36R | 0.78 kcal/mol
26 | A18S | -0.692 kcal/mol
27 | H34F | 0.97 kcal/mol
28 | I21C | 1.51 kcal/mol
29 | K28P | 0.128 kcal/mol
30 | A29D | 0.326 kcal/mol
31 | V33K | -0.149 kcal/mol
32 | K2F | 0.565 kcal/mol
33 | V5T | -0.197 kcal/mol
34 | K36Q | 0.8 kcal/mol
35 | H34K | 0.497 kcal/mol
36 | H34M | 0.601 kcal/mol
37 | P13L | 0.492 kcal/mol
38 | A26Q | -0.508 kcal/mol
39 | K20L | 0.783 kcal/mol
40 | I3R | -0.394 kcal/mol
41 | E15F | 1 kcal/mol
42 | K35S | 0.33 kcal/mol
43 | F10V | -0.708 kcal/mol
44 | K2H | 0.273 kcal/mol
45 | K8A | 0.511 kcal/mol
46 | F40I | 0.784 kcal/mol
47 | T9Q | 0.38 kcal/mol
48 | P13N | 0.67 kcal/mol

Row | Variant | folding stability dG
49 | Q19S | 0.739 kcal/mol
50 | T1H | 1.05 kcal/mol
51 | G38K | -0.088 kcal/mol
52 | A22R | -0.631 kcal/mol
53 | L42K | 0.146 kcal/mol
54 | E15T | 0.439 kcal/mol
55 | E16K | 0.756 kcal/mol
56 | E15Q | 0.576 kcal/mol
57 | I3F | 0.035 kcal/mol
58 | K24G | 0.617 kcal/mol
59 | L31T | -0.366 kcal/mol
60 | G7D | -0.326 kcal/mol
61 | K36N | 1.03 kcal/mol
62 | K35A | 0.318 kcal/mol
63 | L42D | 0.274 kcal/mol
64 | F40P | 0.146 kcal/mol
65 | F40S | 0.04 kcal/mol
66 | T9G | -0.452 kcal/mol
67 | I3V | 0.523 kcal/mol
68 | K24A | 1.06 kcal/mol
69 | K20Q | 0.722 kcal/mol
70 | P13E | 0.598 kcal/mol
71 | K24F | 1.47 kcal/mol
72 | T14N | 0.897 kcal/mol

Row | Variant | folding stability dG
73 | K43M | 0.985 kcal/mol
74 | K28L | 1.03 kcal/mol
75 | Q19V | 0.457 kcal/mol
76 | Q19H | 0.606 kcal/mol
77 | G30C | 0.98 kcal/mol
78 | Q19T | 0.379 kcal/mol
79 | V33E | -0.529 kcal/mol
80 | L42H | 0.251 kcal/mol
81 | T1F | 2.15 kcal/mol
82 | K36P | -0.983 kcal/mol
83 | T1L | 0.508 kcal/mol
84 | H34T | 0.992 kcal/mol
85 | K27P | -0.957 kcal/mol
86 | K24D | 0.676 kcal/mol
87 | E23M | 1.04 kcal/mol
88 | E17G | 0.263 kcal/mol
89 | T14W | 0.054 kcal/mol
90 | E41R | -0.631 kcal/mol
91 | A29M | 2.08 kcal/mol
92 | T39L | 0.663 kcal/mol
93 | K27D | 0.266 kcal/mol
94 | T14Q | -0.297 kcal/mol
95 | K24M | 1.14 kcal/mol
96 | V5S | -0.322 kcal/mol

Row | Variant | folding stability dG
97 | N6K | 0.266 kcal/mol
98 | A12Y | 1.63 kcal/mol
99 | K27F | 0.736 kcal/mol
100 | T39D | 0.863 kcal/mol
101 | I21A | -0.095 kcal/mol
102 | K2I | 0.742 kcal/mol
103 | E15W | 0.965 kcal/mol
104 | K36A | 0.698 kcal/mol
105 | T1V | 1.28 kcal/mol
106 | K27W | 0.749 kcal/mol
107 | Q19L | 0.972 kcal/mol
108 | H34S | 0.682 kcal/mol
109 | T11G | -0.004 kcal/mol
110 | K36I | 1.56 kcal/mol
111 | H34Q | 0.444 kcal/mol
112 | V33C | 1.13 kcal/mol
113 | T39F | 1.21 kcal/mol
114 | A26K | -0.188 kcal/mol
115 | V5G | -0.75 kcal/mol
116 | I4W | 0.365 kcal/mol
117 | P13C | 0.981 kcal/mol
118 | N37H | -0.068 kcal/mol
119 | K36H | 0.939 kcal/mol
120 | T14K | -0.4 kcal/mol

Row | Variant | folding stability dG
121 | K27I | 0.597 kcal/mol
122 | G38C | 0.297 kcal/mol
123 | V5I | 1.13 kcal/mol
124 | K20G | 0.122 kcal/mol
125 | T1D | -0.934 kcal/mol
126 | H34I | 1.2 kcal/mol
127 | K24E | 0.799 kcal/mol
128 | T11R | 0.493 kcal/mol
129 | T9M | 0.652 kcal/mol
130 | F40M | 0.218 kcal/mol
131 | L42M | 0 kcal/mol
132 | K8E | 0.053 kcal/mol
133 | G30D | 0.07 kcal/mol
134 | L31F | 0.713 kcal/mol
135 | K36Y | 1.12 kcal/mol
136 | K20T | 0.562 kcal/mol
137 | H34W | 0.405 kcal/mol
138 | K20N | 0.548 kcal/mol
139 | K8F | 1.25 kcal/mol
140 | T39P | 0.066 kcal/mol
141 | K27E | 0.532 kcal/mol
142 | N6F | 1.61 kcal/mol
143 | H34A | 0.451 kcal/mol
144 | L42E | 0.201 kcal/mol

Row | Variant | folding stability dG
145 | A18C | 0.561 kcal/mol
146 | T9F | 0.699 kcal/mol
147 | I4H | 0.173 kcal/mol
148 | V33Y | 0.251 kcal/mol
149 | P13F | 0.391 kcal/mol
150 | N6A | 0.745 kcal/mol
151 | K20F | 0.767 kcal/mol
152 | E41V | 1.09 kcal/mol
153 | A12W | 0.836 kcal/mol
154 | N37Y | -0.556 kcal/mol
155 | E16R | 0.892 kcal/mol
156 | E16H | 0.749 kcal/mol
157 | T14I | -0.354 kcal/mol
158 | P13T | 0.634 kcal/mol
159 | K27V | 0.456 kcal/mol
160 | K43V | 1.3 kcal/mol
161 | P13R | 0.954 kcal/mol
162 | E15A | 0.725 kcal/mol
163 | E16F | 0.765 kcal/mol
164 | A26L | 0.094 kcal/mol
165 | K24T | 0.939 kcal/mol
166 | T9A | 0.394 kcal/mol
167 | K27N | 0.413 kcal/mol
